Reference: patent US20210388105A1 (ELPISCIENCE SUZHOU BIOPHARMA, published 2021)

Columns and labels:
[1] = target: T1, human CD39 (protein; form not stated) (human, UniProt P49961 38-478, limits assumed); assay: ELISA on coated ENTPD1 (CD39) protein, anti-hIgG-HRP, OD450
T1 construct: also called ENTPD1; ENTPDase 1
T1 sequence: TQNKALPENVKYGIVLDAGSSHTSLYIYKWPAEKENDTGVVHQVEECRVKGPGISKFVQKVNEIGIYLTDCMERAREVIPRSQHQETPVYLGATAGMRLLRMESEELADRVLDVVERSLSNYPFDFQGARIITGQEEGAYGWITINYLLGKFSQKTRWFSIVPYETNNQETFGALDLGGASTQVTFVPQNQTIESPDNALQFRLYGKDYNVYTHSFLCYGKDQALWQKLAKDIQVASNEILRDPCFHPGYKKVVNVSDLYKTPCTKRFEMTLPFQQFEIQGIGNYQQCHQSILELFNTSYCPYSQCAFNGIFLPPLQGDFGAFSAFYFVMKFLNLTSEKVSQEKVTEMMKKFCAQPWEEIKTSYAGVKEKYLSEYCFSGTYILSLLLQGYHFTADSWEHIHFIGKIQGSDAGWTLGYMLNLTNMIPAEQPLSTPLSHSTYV
Procedure: (§1) Binding specificity of the purified humanized antibody hu23.H5L5 against ENTPDase family members was detected by ELISA assay. Briefly, ENTPD1 (i.e. CD39) and ENTPD 2/3/5/6 proteins were coated on 96-well ELISA plates at 4° C. overnight, next day the ELISA plates were washed and blocked using blocking buffer (1% BSA in PBS with 0.05% Tween20) 200 μL/well for 2 hours. Then hu23.H5L5 gradients were duplicated into the wells and stained with anti-hIgG-HRP. After plate washing, the plates were developed with TMB substrate and stopped by 2N HCl. The OD450 were recorded using plate reader and platted by Graphpad Prism.

ENTPD5 protein = target: T2, ENTPD5 protein (Homo sapiens (Human), UniProt O75356 25-428); assay: ELISA on coated ENTPD5 protein, anti-hIgG-HRP, OD450
T2 construct: also called CD39L4; ENTPDase 5
T2 sequence: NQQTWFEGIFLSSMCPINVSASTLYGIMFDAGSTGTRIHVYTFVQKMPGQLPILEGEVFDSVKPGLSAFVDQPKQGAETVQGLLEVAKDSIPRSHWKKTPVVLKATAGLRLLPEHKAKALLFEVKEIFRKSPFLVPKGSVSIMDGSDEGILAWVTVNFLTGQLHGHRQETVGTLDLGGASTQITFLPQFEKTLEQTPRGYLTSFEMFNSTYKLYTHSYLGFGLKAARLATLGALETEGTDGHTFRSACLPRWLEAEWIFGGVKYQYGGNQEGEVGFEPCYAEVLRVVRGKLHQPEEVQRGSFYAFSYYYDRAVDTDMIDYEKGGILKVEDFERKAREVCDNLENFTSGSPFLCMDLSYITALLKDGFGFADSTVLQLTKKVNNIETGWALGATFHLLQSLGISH
Procedure: as §1

[2] = target: T3, human CD39 (full length, on cells) (human, UniProt P49961 1-510); assay: FACS, MOLP-8 cells
T3 construct: Recombinant on CHOK1-hCD39 cells or natural on SK-MEL-28, SK-MEL-5 and MOLP-8 cells; the cell line is named under assay; also called hCD39; ENTPD1
T3 sequence: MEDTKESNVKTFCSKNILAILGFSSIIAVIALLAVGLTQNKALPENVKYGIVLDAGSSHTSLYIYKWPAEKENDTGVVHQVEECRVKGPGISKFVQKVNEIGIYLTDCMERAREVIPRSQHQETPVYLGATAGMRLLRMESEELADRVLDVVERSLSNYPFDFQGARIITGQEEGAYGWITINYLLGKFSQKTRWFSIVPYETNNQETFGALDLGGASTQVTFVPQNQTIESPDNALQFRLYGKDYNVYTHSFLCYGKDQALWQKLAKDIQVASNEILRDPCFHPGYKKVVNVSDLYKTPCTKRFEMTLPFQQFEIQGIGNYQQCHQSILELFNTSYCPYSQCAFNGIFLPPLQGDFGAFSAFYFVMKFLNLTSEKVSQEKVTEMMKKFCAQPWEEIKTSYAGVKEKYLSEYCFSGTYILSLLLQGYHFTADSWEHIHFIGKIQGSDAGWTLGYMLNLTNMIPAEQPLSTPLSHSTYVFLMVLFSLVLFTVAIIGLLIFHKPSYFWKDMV
Procedure: Similarly, human CD39 expressing cells SK-MEL-5, SK-MEL-28 or MOLP-8, were incubated with a gradient concentration of anti-CD39 antibodies for 30 minutes at 4° C. Cells were washed 3 times using FACS buffer and next incubated with fluorescence labelled secondary antibody (goat-anti-mouse IgG or goat anti-human IgG) for 30 minutes at 4° C. Cells were washed 3 times and then re-suspended in FACS buffer and analyzed by flow cytometry analysis on BD Celesta. Data plotted and analyzed using GraphPad Prism 8.02.
The binding affinity of the humanized antibodies for c23 was determined by FACS, using similar methods as described in Example 3.2. The c23 humanized antibody clones showing good binding affinity are listed in below Table 19 and Table 20, and also shown in FIGS. 7A, 7B and FIG. 8. EC₅₀ is the concentration of the indicated antibodies to reach 50% of the signal in this assay.

EC50 (read off the curve) [1]: ~4 nM | binding result (ENTPD5 protein): no binding (tested: about 66 nM) | EC50 [2]: 0.177 nM
B1: hu23.H5L5 (antibody, V domains shown)
VH: QVQLVQSGAEVKKPGASVKVSCKASGYNLKDTFLHWVRQAPGQGLEWMGRIDPANGNIKYDPKFQGRVTITADTSANTAYMELISLRSEDTAVYYCANSPYYYGSGYRIFDVWGQGTTVTVSS
VL: QIVLTQSPATLSLSPGERATLSCSAFSSVNYMHWYQQKPGQAPRLLIYTTSNLASGIPTRFSGSGSGTSYTLTISSLEPEDFAVYYCQQRSTYPFTFGQGTKLEIK
notes: humanized c23
